Experimental data published in paper PMC2756588.

T1: Abp1, P15891
T1 sequence (P15891 535-592, looked up): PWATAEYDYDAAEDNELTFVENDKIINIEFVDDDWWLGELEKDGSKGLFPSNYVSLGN

T2: Bbc1, P47068
T2 sequence (P47068 1-78, looked up): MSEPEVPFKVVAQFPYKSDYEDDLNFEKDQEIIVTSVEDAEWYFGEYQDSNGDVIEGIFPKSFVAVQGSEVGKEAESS

T3: Boi1, P38041
T3 sequence (P38041 1-86, looked up): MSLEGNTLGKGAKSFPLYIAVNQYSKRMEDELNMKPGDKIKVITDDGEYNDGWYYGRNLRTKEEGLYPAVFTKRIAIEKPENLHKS

T4: Boi2, P39969
T4 sequence (P39969 32-116, looked up): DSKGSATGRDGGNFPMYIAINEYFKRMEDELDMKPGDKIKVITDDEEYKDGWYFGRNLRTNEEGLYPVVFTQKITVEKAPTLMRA

T5: Bud14, P27637
T5 sequence (P27637 247-328, looked up): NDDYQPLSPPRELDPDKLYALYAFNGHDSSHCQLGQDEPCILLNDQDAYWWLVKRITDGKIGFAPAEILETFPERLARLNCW

T6: Bzz1-1, P38822
T6 sequence (P38822 478-572, looked up): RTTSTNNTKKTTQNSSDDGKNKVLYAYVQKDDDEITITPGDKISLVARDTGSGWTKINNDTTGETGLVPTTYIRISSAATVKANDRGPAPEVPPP

T7: Bzz1-2, P38822
T7 sequence (P38822 568-633, looked up): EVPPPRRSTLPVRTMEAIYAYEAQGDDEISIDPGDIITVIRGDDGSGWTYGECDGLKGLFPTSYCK

T8: Cdc25, P04821
T8 sequence (P04821 50-136, looked up): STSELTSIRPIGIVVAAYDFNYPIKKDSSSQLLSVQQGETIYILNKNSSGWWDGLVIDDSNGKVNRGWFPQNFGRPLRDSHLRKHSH

T9: Cyk3, Q07533
T9 sequence (Q07533 1-83, looked up): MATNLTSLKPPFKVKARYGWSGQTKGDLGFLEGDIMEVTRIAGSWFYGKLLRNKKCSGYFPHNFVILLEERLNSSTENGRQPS

T10: Fus1, P11710
T10 sequence (P11710 432-512, looked up): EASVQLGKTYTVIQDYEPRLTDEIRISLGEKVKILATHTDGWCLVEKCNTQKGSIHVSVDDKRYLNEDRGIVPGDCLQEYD

T11: Hof1, Q05080
T11 sequence (Q05080 590-669, looked up): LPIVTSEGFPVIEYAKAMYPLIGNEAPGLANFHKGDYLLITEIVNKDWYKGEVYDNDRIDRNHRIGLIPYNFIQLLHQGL

T12: Hse1, P38753
T12 sequence (P38753 208-285, looked up): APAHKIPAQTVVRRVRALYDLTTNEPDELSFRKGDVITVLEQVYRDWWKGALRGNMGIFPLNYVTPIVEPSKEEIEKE

T13: Lsb1, P53281
T13 sequence (P53281 45-122, looked up): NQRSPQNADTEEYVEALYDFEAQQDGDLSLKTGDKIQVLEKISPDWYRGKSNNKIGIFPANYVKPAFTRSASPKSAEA

T14: Lsb3, P43603
T14 sequence (P43603 385-451, looked up): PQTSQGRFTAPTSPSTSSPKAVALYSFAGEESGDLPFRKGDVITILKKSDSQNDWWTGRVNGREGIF

T15: Lsb4, P32793
T15 sequence (P32793 402-468, looked up): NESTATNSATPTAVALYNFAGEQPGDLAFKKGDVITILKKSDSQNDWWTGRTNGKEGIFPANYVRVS

T16: Myo5, Q04439
T16 sequence (Q04439 1072-1160, looked up): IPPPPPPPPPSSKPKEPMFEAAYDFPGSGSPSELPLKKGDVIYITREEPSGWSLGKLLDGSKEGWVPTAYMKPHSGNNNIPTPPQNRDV

T17: Nbp2, Q12163
T17 sequence (Q12163 103-180, looked up): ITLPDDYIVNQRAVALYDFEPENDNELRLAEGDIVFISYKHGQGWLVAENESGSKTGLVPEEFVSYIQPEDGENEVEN

T18: Pex13, P80667
T18 sequence (P80667 295-386, looked up): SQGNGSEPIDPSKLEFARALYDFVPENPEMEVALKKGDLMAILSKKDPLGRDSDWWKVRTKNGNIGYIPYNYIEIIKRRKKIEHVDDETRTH

T19: Pin3, Q06449
T19 sequence (Q06449 53-122, looked up): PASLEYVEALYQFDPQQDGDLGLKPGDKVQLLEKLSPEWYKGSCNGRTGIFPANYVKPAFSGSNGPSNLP

T20: Sla1-2, P32790
T20 sequence (P32790 60-140, looked up): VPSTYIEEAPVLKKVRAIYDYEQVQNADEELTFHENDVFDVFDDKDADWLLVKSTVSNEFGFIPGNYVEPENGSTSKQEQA

T21: Sla1-3, P32790
T21 sequence (P32790 344-424, looked up): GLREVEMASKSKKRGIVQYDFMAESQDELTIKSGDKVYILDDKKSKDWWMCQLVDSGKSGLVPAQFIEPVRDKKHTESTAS

B1: unnamed (peptide)
chain: NRPAIRIPSLKKPAL
B2: unnamed (peptide)
chain: YYNRQELALPKRMSS
B3: unnamed (peptide)
chain: KWVRRPKLMTPLTFS
B4: unnamed (peptide)
chain: YSRKKLPVVLSKMTL
B5: unnamed (peptide)
chain: VKPRQLFPIPLNKVD
B6: unnamed (peptide)
chain: HPRFVSPRIPSRIVK

biological target: T1, Abp1, P15891; test: SPOT array; settings: median of control spots 935

Row | SPOT intensity | Binder
1 | 74 | B1
2 | 14 | B2
3 | 67 | B3
4 | 64 | B4
5 | 10 | B5
6 | 133 | B6

biological target: T2, Bbc1, P47068; test: SPOT array; settings: median of control spots 796

Row | SPOT intensity | Binder
7 | 40 | B1
8 | 8 | B2
9 | 38 | B3
10 | 18 | B4
11 | 0 | B5
12 | 226 | B6

biological target: Bem1-1, P29366; test: SPOT array; settings: median of control spots 4282
Sequence (P29366 55-141): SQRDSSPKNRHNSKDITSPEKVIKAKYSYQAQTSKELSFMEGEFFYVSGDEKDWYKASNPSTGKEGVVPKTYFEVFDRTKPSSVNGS

Row | SPOT intensity | Binder
13 | 1 | B1
14 | 0 | B2
15 | 0 | B3
16 | 1 | B4
17 | 0 | B5
18 | 0 | B6

biological target: Bem1-2, P29366; test: SPOT array; settings: median of control spots 4347
Sequence (P29366 139-227): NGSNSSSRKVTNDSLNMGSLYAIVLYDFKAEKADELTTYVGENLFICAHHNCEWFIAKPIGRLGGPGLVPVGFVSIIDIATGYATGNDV

Row | SPOT intensity | Binder
19 | 12 | B1
20 | 0 | B2
21 | 5 | B3
22 | 0 | B4
23 | 0 | B5
24 | 2 | B6

biological target: T3, Boi1, P38041; test: SPOT array; settings: median of control spots 1162

Row | SPOT intensity | Binder
25 | 1 | B1
26 | 1 | B2
27 | 1 | B3
28 | 0 | B4
29 | 0 | B5
30 | 0 | B6

biological target: T4, Boi2, P39969; test: SPOT array; settings: median of control spots 1161

Row | SPOT intensity | Binder
31 | 0 | B1
32 | 1 | B2
33 | 0 | B3
34 | 1 | B4
35 | 0 | B5
36 | 0 | B6

biological target: T5, Bud14, P27637; test: SPOT array; settings: median of control spots 956

Row | SPOT intensity | Binder
37 | 13 | B1
38 | 3 | B2
39 | 11 | B3
40 | 3 | B4
41 | 0 | B5
42 | 0 | B6

biological target: T6, Bzz1-1, P38822; test: SPOT array; settings: median of control spots 4446

Row | SPOT intensity | Binder
43 | 3 | B1
44 | 0 | B2
45 | 1 | B3
46 | 1 | B4
47 | 1 | B5
48 | 0 | B6

biological target: T7, Bzz1-2, P38822; test: SPOT array; settings: median of control spots 4538

Row | SPOT intensity | Binder
49 | 0 | B1
50 | 4 | B2
51 | 0 | B3
52 | 0 | B4
53 | 0 | B5
54 | 0 | B6

biological target: T8, Cdc25, P04821; test: SPOT array; settings: median of control spots 969

Row | SPOT intensity | Binder
55 | 5 | B1
56 | 0 | B2
57 | 0 | B3
58 | 0 | B4
59 | 0 | B5
60 | 2 | B6

biological target: T9, Cyk3, Q07533; test: SPOT array; settings: median of control spots 1451

Row | SPOT intensity | Binder
61 | 0 | B1
62 | 3 | B2
63 | 1 | B3
64 | 1 | B4
65 | 0 | B5
66 | 0 | B6

biological target: T10, Fus1, P11710; test: SPOT array; settings: median of control spots 1200

Row | SPOT intensity | Binder
67 | 1 | B1
68 | 6 | B2
69 | 54 | B3
70 | 2 | B4
71 | 0 | B5
72 | 0 | B6

biological target: GST; test: SPOT array; settings: median of control spots 978

Row | SPOT intensity | Binder
73 | 1 | B1
74 | 3 | B2
75 | 1 | B3
76 | 2 | B4
77 | 0 | B5
78 | 0 | B6

biological target: T11, Hof1, Q05080; test: SPOT array; settings: median of control spots 4086

Row | SPOT intensity | Binder
79 | 13 | B1
80 | 1 | B2
81 | 8 | B3
82 | 2 | B4
83 | 0 | B5
84 | 0 | B6

biological target: T12, Hse1, P38753; test: SPOT array; settings: median of control spots 1727

Row | SPOT intensity | Binder
85 | 20 | B1
86 | 2 | B2
87 | 16 | B3
88 | 1 | B4
89 | 0 | B5
90 | 9 | B6

biological target: T13, Lsb1, P53281; test: SPOT array; settings: median of control spots 388

Row | SPOT intensity | Binder
91 | 467 | B1
92 | 819 | B2
93 | 355 | B3
94 | 888 | B4
95 | 880 | B5
96 | 379 | B6

biological target: T14, Lsb3, P43603; test: SPOT array; settings: median of control spots 406

Row | SPOT intensity | Binder
97 | 0 | B1
98 | 24 | B2
99 | 5 | B3
100 | 1 | B4
101 | 0 | B5
102 | 41 | B6

biological target: T15, Lsb4, P32793; test: SPOT array; settings: median of control spots 397

Row | SPOT intensity | Binder
103 | 6 | B1
104 | 45 | B2
105 | 2 | B3
106 | 0 | B4
107 | 0 | B5
108 | 57 | B6

biological target: Myo3, P36006; test: SPOT array; settings: median of control spots 468

Row | SPOT intensity | Binder
109 | 3 | B1
110 | 11 | B2
111 | 6 | B3
112 | 1 | B4
113 | 0 | B5
114 | 3 | B6

biological target: T16, Myo5, Q04439; test: SPOT array; settings: median of control spots 471

Row | SPOT intensity | Binder
115 | 2 | B1
116 | 5 | B2
117 | 6 | B3
118 | 4 | B4
119 | 0 | B5
120 | 0 | B6

biological target: T17, Nbp2, Q12163; test: SPOT array; settings: median of control spots 357

Row | SPOT intensity | Binder
121 | 2 | B1
122 | 1 | B2
123 | 3 | B3
124 | 0 | B4
125 | 0 | B5
126 | 2 | B6

biological target: T18, Pex13, P80667; test: SPOT array; settings: median of control spots 1341

Row | SPOT intensity | Binder
127 | 5 | B1
128 | 16 | B2
129 | 6 | B3
130 | 8 | B4
131 | 0 | B5
132 | 21 | B6

biological target: T19, Pin3, Q06449; test: SPOT array; settings: median of control spots 2171

Row | SPOT intensity | Binder
133 | 9 | B1
134 | 327 | B2
135 | 53 | B3
136 | 20 | B4
137 | 5 | B5
138 | 86 | B6

biological target: Rvs167, P39743; test: SPOT array; settings: median of control spots 2707
Sequence (P39743 419-482): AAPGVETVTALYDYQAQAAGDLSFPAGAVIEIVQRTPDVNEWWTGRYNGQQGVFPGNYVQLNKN

Row | SPOT intensity | Binder
139 | 0 | B1
140 | 21 | B2
141 | 0 | B3
142 | 2 | B4
143 | 0 | B5
144 | 4 | B6

biological target: Sho1, P40073; test: SPOT array; settings: median of control spots 1148
Sequence (P40073 287-367): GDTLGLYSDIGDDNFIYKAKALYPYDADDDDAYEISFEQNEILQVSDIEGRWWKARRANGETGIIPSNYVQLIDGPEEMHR

Row | SPOT intensity | Binder
145 | 39 | B1
146 | 9 | B2
147 | 19 | B3
148 | 47 | B4
149 | 8 | B5
150 | 40 | B6

biological target: T20, Sla1-2, P32790; test: SPOT array; settings: median of control spots 712

Row | SPOT intensity | Binder
151 | 0 | B1
152 | 2 | B2
153 | 0 | B3
154 | 4 | B4
155 | 0 | B5
156 | 0 | B6

biological target: T21, Sla1-3, P32790; test: SPOT array; settings: median of control spots 5475

Row | SPOT intensity | Binder
157 | 14 | B1
158 | 7 | B2
159 | 44 | B3
160 | 12 | B4
161 | 0 | B5
162 | 15 | B6
